Data taken from the supplement of paper PMC9170038.

System: K4 kissing-loop RNA reporter
Test: apparent KD of K4 kissing-loop reporter; higher = weaker reporter binding
Conditions: Eterna round: R107
Protocol: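 RNA-MaP round R107: designed RNA switches with theophylline, tryptophan, arginine or FMN aptamers are transcribed on-chip within common flanks. They are titrated with a labelled K4 kissing-loop RNA reporter in RNA-MaP buffer (100 mM Tris pH 7.5, 80 mM KCl, 4 mM MgCl2), without ligand or with the indicated ligand. Median apparent KD per design.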

[1] = input ligand: theophylline 20 uM
[2] = input ligand: tryptophan 2.4 mM
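Note: bound reporter read as fluorescence of individual clusters on recovered sequencing chips by microscopy, with normalized cluster intensities fitted with a binding model.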

“GGAUAGGAUAGAGGAUAUGGUAUAUGCAAGAAUAACUUAUCGUGUAAAUCCAUAGGGAGUGAUGUUCCAGAAGGCUGUCCUAUCG [MatMod 11 - Jieux - Exclusion - FMN B]” was tested, and the “apparent KD of K4 kissing-loop reporter” value (input ligand: FMN 200 uM) was 921 nM, the “apparent KD of K4 kissing-loop reporter” value (input ligand: arginine 13.2 mM) was 244 nM and the “apparent KD of K4 kissing-loop reporter” value (input ligand: none) was 308 nM. The “apparent KD of K4 kissing-loop reporter” value [1] was 324 nM and the “apparent KD of K4 kissing-loop reporter” value [2] was 229 nM.

With “GCCGUAGAUUGAAGGAGCGGUAUGGGCGGUGGCUGAGUGAUGUUCAGGAAAAGUGGCUUCUACCAGGUAGGUCGCAAUCUACGGC” the “apparent KD of K4 kissing-loop reporter” value (input ligand: FMN 200 uM) was 108 nM, the “apparent KD of K4 kissing-loop reporter” value (input ligand: arginine 13.2 mM) was 103 nM and the “apparent KD of K4 kissing-loop reporter” value (input ligand: none) was 127 nM. The “apparent KD of K4 kissing-loop reporter” value [1] was 146 nM and the “apparent KD of K4 kissing-loop reporter” value [2] was 113 nM.

In the case of “ACAUGUGCCAGUGAUGUUGGCGUACGUGAUACCAGACGAAUAAAAGUCCCUUGGCAGCACAAAUAAGCCAAGAUAGAUGAAUGAU [#03 K4 Theophylline A Exclusion]”, the “apparent KD of K4 kissing-loop reporter” value (input ligand: FMN 200 uM) is reported as 191 nM, the “apparent KD of K4 kissing-loop reporter” value (input ligand: arginine 13.2 mM) is reported as 159 nM and the “apparent KD of K4 kissing-loop reporter” value (input ligand: none) is reported as 203 nM. For the same sequence, the “apparent KD of K4 kissing-loop reporter” value [1] was 242 nM and the “apparent KD of K4 kissing-loop reporter” value [2] was 189 nM.

In the case of “UGUACCGAGUCAGGAUAUGGUAUAGCGGAAACGCACCAGUGAUGUUGGACGCGAAAGCGAUAAAAUCCAGAAGGGACUUGGUACU [FmnBS 20 #SwitchBubble #StaticStem #DoubleMagnetSystem]”, the “apparent KD of K4 kissing-loop reporter” value (input ligand: FMN 200 uM) is reported as 184 nM, the “apparent KD of K4 kissing-loop reporter” value (input ligand: arginine 13.2 mM) is reported as 224 nM and the “apparent KD of K4 kissing-loop reporter” value (input ligand: none) is reported as 209 nM. The “apparent KD of K4 kissing-loop reporter” value [1] was 221 nM and the “apparent KD of K4 kissing-loop reporter” value [2] was 207 nM.

“UGGAGUUGACGAAAAGUCAACUCCUGAGAUACCAGUGACGAAGGUCACCCUUGGCAGCUCACUGCUAGUGAUGUUGGUAGUUAAA [whbob_SS_Theo_A_w50]” was tested, and the “apparent KD of K4 kissing-loop reporter” value (input ligand: FMN 200 uM) was 1050 nM, the “apparent KD of K4 kissing-loop reporter” value (input ligand: arginine 13.2 mM) was 502 nM and the “apparent KD of K4 kissing-loop reporter” value (input ligand: none) was 797 nM. For the same sequence, the “apparent KD of K4 kissing-loop reporter” value [1] was 773 nM and the “apparent KD of K4 kissing-loop reporter” value [2] was 829 nM.

In the case of “GUUGGGUGGGUUAAAGAAUUUGUCUGACAACGAGGACCGGUACGGCCGCCACUCGAGUGAUGUUCGAGAAGAAAGAAAGAAAGAA”, the “apparent KD of K4 kissing-loop reporter” value (input ligand: FMN 200 uM) is reported as 66.4 nM, the “apparent KD of K4 kissing-loop reporter” value (input ligand: arginine 13.2 mM) is reported as 123 nM and the “apparent KD of K4 kissing-loop reporter” value (input ligand: none) is reported as 95.4 nM. For the same sequence, the “apparent KD of K4 kissing-loop reporter” value [1] was 146 nM and the “apparent KD of K4 kissing-loop reporter” value [2] was 126 nM.

In the case of “UUUAACGAGUGAUGUUCGAAGAGUAAGGGUGAGGAUAUCGAUUUUUCGAGAAGGCGCCUCGAAGUGAUACGAAAGUAUCGCUUCG [FMN A 7]”, the “apparent KD of K4 kissing-loop reporter” value (input ligand: FMN 200 uM) is reported as 246 nM, the “apparent KD of K4 kissing-loop reporter” value (input ligand: arginine 13.2 mM) is reported as 224 nM and the “apparent KD of K4 kissing-loop reporter” value (input ligand: none) is reported as 269 nM. For the same sequence, the “apparent KD of K4 kissing-loop reporter” value [1] was 269 nM and the “apparent KD of K4 kissing-loop reporter” value [2] was 215 nM.

In the case of “GGGAAACCCAAUCAUACGGCGGUUCUUAGUCGAGGACCGGUACGGCCGCCACUCGAACUUGCUAGUGAUGUUAGCUUAUCGAGCU”, the “apparent KD of K4 kissing-loop reporter” value (input ligand: FMN 200 uM) is reported as 221 nM, the “apparent KD of K4 kissing-loop reporter” value (input ligand: arginine 13.2 mM) is reported as 296 nM and the “apparent KD of K4 kissing-loop reporter” value (input ligand: none) is reported as 253 nM. For the same sequence, the “apparent KD of K4 kissing-loop reporter” value [1] was 265 nM and the “apparent KD of K4 kissing-loop reporter” value [2] was 162 nM.

“AAGGUUGUGCAUGGGAGUGAUGUUCCCAAGCAGGAUAUCGCUCACGCGAGAAGGGCUUGCACAACCGCUCAAGAAACUUGAGCAA [Omei KL FMN A SS C v6]” was tested, and the “apparent KD of K4 kissing-loop reporter” value (input ligand: FMN 200 uM) was 129 nM, the “apparent KD of K4 kissing-loop reporter” value (input ligand: arginine 13.2 mM) was 179 nM and the “apparent KD of K4 kissing-loop reporter” value (input ligand: none) was 195 nM. For the same sequence, the “apparent KD of K4 kissing-loop reporter” value [1] was 200 nM and the “apparent KD of K4 kissing-loop reporter” value [2] was 188 nM.

With “AAUAUAUAGUGAAGGAGCGCGUAUAGCAGUGAUGUUGCUUACUUAUUAUUAUAUUUUUUGACGCAGGUAGGUCGCACUAUAUAUA [JR_ExcArginiB_Sub021]” the “apparent KD of K4 kissing-loop reporter” value (input ligand: FMN 200 uM) was 242 nM, the “apparent KD of K4 kissing-loop reporter” value (input ligand: arginine 13.2 mM) was 181 nM and the “apparent KD of K4 kissing-loop reporter” value (input ligand: none) was 268 nM. For the same sequence, the “apparent KD of K4 kissing-loop reporter” value [1] was 227 nM and the “apparent KD of K4 kissing-loop reporter” value [2] was 215 nM.

“AAAUGUAUCUGAAGGAGCGUGAAAUAAUAUUAGACAUAAUAGCCCAGUGAUGUUGGGUUAUCACAGGUAGGUCGCAGAUGUAUAA [Same State Arginie B GF 26]” was tested, and the “apparent KD of K4 kissing-loop reporter” value (input ligand: FMN 200 uM) was 112 nM, the “apparent KD of K4 kissing-loop reporter” value (input ligand: arginine 13.2 mM) was 108 nM and the “apparent KD of K4 kissing-loop reporter” value (input ligand: none) was 105 nM. For the same sequence, the “apparent KD of K4 kissing-loop reporter” value [1] was 125 nM and the “apparent KD of K4 kissing-loop reporter” value [2] was 106 nM.

“AAACAUUGGUGCGAUACCAGCUGAUCGGAAACGAUCUUGCUGGAGUGAUGUUCCAAGUAAAGCCCUUGGCAGCGCACCGAUGAAA [MAT - Same State Theophlline B - Mod of Eli - D21]” was tested, and the “apparent KD of K4 kissing-loop reporter” value (input ligand: FMN 200 uM) was 135 nM, the “apparent KD of K4 kissing-loop reporter” value (input ligand: arginine 13.2 mM) was 31.7 nM and the “apparent KD of K4 kissing-loop reporter” value (input ligand: none) was 91.5 nM. The “apparent KD of K4 kissing-loop reporter” value [1] was 72 nM and the “apparent KD of K4 kissing-loop reporter” value [2] was 75.7 nM.

“AGCCUAGGAGUCAUUUCCUGCCCGUACGAUACCAGCAUUACCAGUUGCCCUUGGCAGCGUUAUAAGGCCAGUGAUGUUGGCCACU [theeternabot_sameState_KL_Theo_A_22]” was tested, and the “apparent KD of K4 kissing-loop reporter” value (input ligand: FMN 200 uM) was 168 nM, the “apparent KD of K4 kissing-loop reporter” value (input ligand: arginine 13.2 mM) was 175 nM and the “apparent KD of K4 kissing-loop reporter” value (input ligand: none) was 185 nM. The “apparent KD of K4 kissing-loop reporter” value [1] was 197 nM and the “apparent KD of K4 kissing-loop reporter” value [2] was 167 nM.

With “GCUAUGGUAGGAAGGAGCGCUUAUUUAUUAAUAAGAGUGAUGUUCGAUAAUAGAUAUUUAUAGCAGGUAGGUCGCCUACUAUAGC [Arginine B K4 11]” the “apparent KD of K4 kissing-loop reporter” value (input ligand: FMN 200 uM) was 290 nM, the “apparent KD of K4 kissing-loop reporter” value (input ligand: arginine 13.2 mM) was 278 nM and the “apparent KD of K4 kissing-loop reporter” value (input ligand: none) was 293 nM. For the same sequence, the “apparent KD of K4 kissing-loop reporter” value [1] was 321 nM and the “apparent KD of K4 kissing-loop reporter” value [2] was 165 nM.

With “AAUACACUGUCGGCCGCCACUCUCGGCUGCAGUGUGCAGGGACAUGAGUGAUGUUUAUGUCGCGUGAGGACCGGGACUGAUGUAU [KL-SSTryp-B1 #analogue]” the “apparent KD of K4 kissing-loop reporter” value (input ligand: FMN 200 uM) was 326 nM, the “apparent KD of K4 kissing-loop reporter” value (input ligand: arginine 13.2 mM) was 257 nM and the “apparent KD of K4 kissing-loop reporter” value (input ligand: none) was 312 nM. The “apparent KD of K4 kissing-loop reporter” value [1] was 326 nM and the “apparent KD of K4 kissing-loop reporter” value [2] was 209 nM.

In the case of “AUAUUGGUUGAGAGUGAUGUUCCUUGUGUUCGAGGACCGGUACGGCCGCCACUCGGGUAGAAAAUAAAAGAUGUGUUUGAUUUUU [BDazzled - #13 SS Tryptophan A]”, the “apparent KD of K4 kissing-loop reporter” value (input ligand: FMN 200 uM) is reported as 237 nM, the “apparent KD of K4 kissing-loop reporter” value (input ligand: arginine 13.2 mM) is reported as 101 nM and the “apparent KD of K4 kissing-loop reporter” value (input ligand: none) is reported as 125 nM. The “apparent KD of K4 kissing-loop reporter” value [1] was 185 nM and the “apparent KD of K4 kissing-loop reporter” value [2] was 212 nM.

With “GUAGUGAUGUUACGAGUAUUCCAUCGUAGAGAGGAUAUGGUUCCUUCCAGAAGGUUCUGAGAAUUAAAAUUUGAUAAAAUGAGGG [Exclusion FMN A GF 2]” the “apparent KD of K4 kissing-loop reporter” value (input ligand: FMN 200 uM) was 304 nM, the “apparent KD of K4 kissing-loop reporter” value (input ligand: arginine 13.2 mM) was 251 nM and the “apparent KD of K4 kissing-loop reporter” value (input ligand: none) was 390 nM. The “apparent KD of K4 kissing-loop reporter” value [1] was 392 nM and the “apparent KD of K4 kissing-loop reporter” value [2] was 252 nM.
